Source: patent publication EP0621339B1 (TAKARA SHUZO CO. LTD., dated 2001)

Biological target: HA molecule (haemagglutinin) of A/Okuda/57 (H2N2) (influenza A virus, H2N2 subtype, strain A/Okuda/57)
Test: cell-based or functional assay

monoclonal antibody C179 was tested, and the HI (hemagglutination inhibition titer) (fold dilution of the ascites fluid) was < 32.
